Laboratory results: patent publication US20260015426A1 (23ANDME, published 2026)
Numbering of substitutions follows the chain as printed. Numbers in names are those of the source.

B1: Parent Fab (Fab of h11C5_C59Y/A43S) (Fab, V domains shown)
VH: EVQLVESGGGLVQPGGSLRLSCAASGFTFSNYAMSWVRQAPGKGLEWVATVTEGGDYNYYLDDVKGRFTISRDNAKNSLYLQMNSLRAEDTAVYYCARDRWPYFFDYWGQGTLVTVSS
VL: DIQMTQSPSSLSASVGDRVTITCRASENIYSNLAWYQQKPGKSPKLLVYGAKNLADGVPSRFSGSGSGTDYTLTISSLQPEDFATYYCQHFWTTPRTFGGGTKVEIK
notes: Fab with 8xHis tag; also called parental Fab of h11C5_C59Y/A43S
B2: K11 Fab (VL A51R/K52G) (Fab, V domains shown)
VH: B1 VH
VL: B1 VL with A51R, K52G
notes: Fab with 8xHis tag
B3: K18 Fab (VL A51Y/L33G) (Fab, V domains shown)
VH: B1 VH
VL: B1 VL with L33G, A51Y
notes: Fab with 8xHis tag
B4: K5 Fab (VL Y30W/W92L) (Fab, V domains shown)
VH: B1 VH
VL: B1 VL with Y30W, W92L
notes: Fab with 8xHis tag
B5: K17 Fab (VL A51Y/W92K) (Fab, V domains shown)
VH: B1 VH
VL: B1 VL with A51Y, W92K
notes: Fab with 8xHis tag
B6: H5 Fab (VH V51S/G54H) (Fab, V domains shown)
VH: B1 VH with V51S, G55H
VL: B1 VL
notes: Fab with 8xHis tag
B7: K6 Fab (VL Y30W/W92F) (Fab, V domains shown)
VH: B1 VH
VL: B1 VL with Y30W, W92F
notes: Fab with 8xHis tag
B8: K13/H12 Fab (VL-A51Y/W92I, VH-M34V) (Fab, V domains shown)
VH: B1 VH with M34V
VL: B1 VL with A51Y, W92I
notes: Fab with 8xHis tag
B9: K10/H3 IgG (VL-A51Y, VH-V51S) (antibody, V domains shown)
VH: B1 VH with V51S
VL: B1 VL with A51Y
B10: K10/H2 IgG (VL-A51Y, VH-R96D) (antibody, V domains shown)
VH: B1 VH with R100D
VL: B1 VL with A51Y
B11: K10 IgG (VL-A51Y) (antibody, V domains shown)
VH: B1 VH
VL: B1 VL with A51Y
B12: Parent IgG Ab (full-length IgG of h11C5_C59Y/A43S) (antibody, V domains shown)
VH: B1 VH
VL: B1 VL
B13: K13 IgG (VL-A51Y/W92I) (antibody, V domains shown)
VH: B1 VH
VL: B1 VL with A51Y, W92I
B14: K17 IgG (VL-A51Y/W92K) (antibody, V domains shown)
VH: B1 VH
VL: B1 VL with A51Y, W92K
B15: H9 Fab (VH G54V/R96A) (Fab, V domains shown)
VH: B1 VH with G55V, R100A
VL: B1 VL
notes: Fab with 8xHis tag
B16: H8 Fab (VH F29S/E52aV/R96A) (Fab, V domains shown)
VH: B1 VH with F29S, E53V, R100A
VL: B1 VL
notes: Fab with 8xHis tag
B17: H10 Fab (VH F29S/D55G/R96S) (Fab, V domains shown)
VH: B1 VH with F29S, D56G, R100S
VL: B1 VL
notes: Fab with 8xHis tag
B18: H12 Fab (VH M34V) (Fab, V domains shown)
VH: B1 VH with M34V
VL: B1 VL
notes: Fab with 8xHis tag
B19: H7 Fab (VH F29E/N57G/R96A) (Fab, V domains shown)
VH: B1 VH with F29E, N58G, R100A
VL: B1 VL
notes: Fab with 8xHis tag
B20: H11 Fab (VH W97F) (Fab, V domains shown)
VH: B1 VH with W101F
VL: B1 VL
notes: Fab with 8xHis tag

Target: T1, hu-M-IL1RAP construct, positions S21-T367 (extracellular domain of the membrane form of human IL1RAP) (human, UniProt Q9NPH3 21-367)
T1 construct: Biotinylated when captured on the Biacore chip
T1 sequence: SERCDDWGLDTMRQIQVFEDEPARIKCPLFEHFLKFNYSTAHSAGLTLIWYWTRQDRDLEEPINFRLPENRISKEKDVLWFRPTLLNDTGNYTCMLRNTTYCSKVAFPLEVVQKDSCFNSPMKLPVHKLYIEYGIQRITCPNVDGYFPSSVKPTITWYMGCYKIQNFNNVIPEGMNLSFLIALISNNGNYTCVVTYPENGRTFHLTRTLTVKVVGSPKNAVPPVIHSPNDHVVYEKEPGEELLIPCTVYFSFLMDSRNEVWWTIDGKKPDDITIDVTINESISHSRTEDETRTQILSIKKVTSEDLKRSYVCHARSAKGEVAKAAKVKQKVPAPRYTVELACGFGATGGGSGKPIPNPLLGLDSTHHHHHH
Test: SPR, Fab analyte, 25 C
Experimental: (§1) Surface plasmon resonance (SPR) analysis was used to determine binding affinity for hu-M-IL1RAP of the purified Fabs containing the selected single, double, and triple mutations in either the VL or VH regions using a BIACORE™ 8K instrument. […] For kinetics measurements, 5 nM biotinylated hu-M-IL1RAP was captured at 10 μL/min to achieve ˜50 response units in the second flow cell (FC2). FC1 was kept as a reference. […] The sensorgrams were recorded and subjected to reference and buffer subtraction before data analysis with the BIACORE® 8K Evaluation Software (version 1.1.1.7442). Association rates (kₒₙ) and dissociation rates (koff) were calculated using a simple one-to-one Langmuir binding model. The equilibrium dissociation constant (KD) was calculated as the ratio of koff/kₒₙ.

With B1 the “apparent Kd (pooled screen)” value was 0.337 nM.

In the case of B1, the “apparent koff (pooled screen)” value is reported as 0.000468 s⁻¹.

With B1 the “apparent kon (pooled screen)” value was 1.39e+06 M⁻¹ s⁻¹.

B2 and B3 are within 1.5-fold of each other in Kd: 0.0212 nM for the first, 0.0189 nM for the second.

First: B4
Second: B5
The Kd of the first is 8.2-fold higher: 0.0524 nM for the first, 0.00637 nM for the second.

Compared with B6, B7 is 3.4-fold lower in Kd: 0.05 nM for the first, 0.0147 nM for the second.

B2 and B3 are within 1.5-fold of each other in koff: 0.000102 s⁻¹ for the first, 0.000123 s⁻¹ for the second.

Going from B4 to B5, the koff falls from 0.000268 s⁻¹ to 3.58e-05 s⁻¹ (7.5-fold).

First: B6
Second: B7
The koff of the first is 3.8-fold higher: 0.000235 s⁻¹ for the first, 6.25e-05 s⁻¹ for the second.

B2 and B3 are within 1.5-fold of each other in kon: 4.83e+06 M⁻¹ s⁻¹ for the first, 6.52e+06 M⁻¹ s⁻¹ for the second.

B4 and B5 are within 1.5-fold of each other in kon: 5.11e+06 M⁻¹ s⁻¹ for the first, 5.63e+06 M⁻¹ s⁻¹ for the second.

B6 and B7 are within 1.5-fold of each other in kon: 4.71e+06 M⁻¹ s⁻¹ for the first, 4.25e+06 M⁻¹ s⁻¹ for the second.

Target: T1, hu-M-IL1RAP construct, positions …
Test: SPR, Fab analyte, 37 C
Experimental: as §1

B8 was tested, and the Kd was 0.0363 nM.

For B8, the koff was 0.000178 s⁻¹.

Work on B8 yielded a kon of 4.9e+06 M⁻¹ s⁻¹.

Target: T2, human IL1RAP (hu-IL1RAP) on human cells (human, UniProt Q9NPH3 21-570)
T2 sequence: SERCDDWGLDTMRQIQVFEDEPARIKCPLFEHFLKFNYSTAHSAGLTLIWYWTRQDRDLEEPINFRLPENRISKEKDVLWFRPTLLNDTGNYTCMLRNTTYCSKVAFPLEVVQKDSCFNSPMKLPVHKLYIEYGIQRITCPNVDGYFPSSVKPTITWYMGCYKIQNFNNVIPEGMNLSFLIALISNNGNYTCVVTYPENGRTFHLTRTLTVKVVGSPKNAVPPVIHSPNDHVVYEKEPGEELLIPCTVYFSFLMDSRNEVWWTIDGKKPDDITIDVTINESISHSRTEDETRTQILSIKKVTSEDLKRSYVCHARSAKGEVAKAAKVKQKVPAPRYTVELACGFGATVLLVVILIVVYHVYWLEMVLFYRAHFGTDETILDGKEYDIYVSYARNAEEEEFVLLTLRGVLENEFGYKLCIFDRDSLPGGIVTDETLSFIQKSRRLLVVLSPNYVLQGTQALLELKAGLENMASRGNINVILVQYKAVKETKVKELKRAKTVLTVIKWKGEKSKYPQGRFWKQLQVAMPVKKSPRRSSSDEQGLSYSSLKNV
Test: cell-based or functional assay

B9 and B10 are the same in “HEK-Blue, IL-1β, % inhibition at 100 nM (IgG)” value: 100% for the first, 100% for the second.

Compared with B11, B12 is lower in “HEK-Blue, IL-1β, % inhibition at 100 nM (IgG)” value: 100% for the first, 99% for the second.

B13 and B14 are the same in “HEK-Blue, IL-1β, % inhibition at 100 nM (IgG)” value: 100% for the first, 100% for the second.

Going from B9 to B10, the “HEK-Blue, IL-1β, IC50 (IgG)” value rises from 0.177 nM to 0.285 nM (1.6-fold).

Compared with B11, B12 is 1.6-fold higher in “HEK-Blue, IL-1β, IC50 (IgG)” value: 0.23 nM for the first, 0.363 nM for the second.

B13 and B14 are within 1.5-fold of each other in “HEK-Blue, IL-1β, IC50 (IgG)” value: 0.332 nM for the first, 0.468 nM for the second.

Compared with B9, B10 is higher in “HEK-Blue, IL-33, % inhibition at 100 nM (IgG)” value: 99% for the first, 100% for the second.

Compared with B11, B12 is lower in “HEK-Blue, IL-33, % inhibition at 100 nM (IgG)” value: 100% for the first, 99% for the second.

Compared with B13, B14 is lower in “HEK-Blue, IL-33, % inhibition at 100 nM (IgG)” value: 100% for the first, 99% for the second.

Going from B9 to B10, the “HEK-Blue, IL-33, IC50 (IgG)” value rises from 0.354 nM to 1.06 nM (3-fold).

B11 and B12 are within 1.5-fold of each other in “HEK-Blue, IL-33, IC50 (IgG)” value: 1.37 nM for the first, 2.04 nM for the second.

Compared with B13, B14 is 1.5-fold higher in “HEK-Blue, IL-33, IC50 (IgG)” value: 1.77 nM for the first, 2.74 nM for the second.

B9 and B10 are the same in “HEK-Blue, IL-36α, % inhibition at 100 nM (IgG)” value: 100% for the first, 100% for the second.

Compared with B11, B12 is lower in “HEK-Blue, IL-36α, % inhibition at 100 nM (IgG)” value: 100% for the first, 89% for the second.

B13 and B14 are the same in “HEK-Blue, IL-36α, % inhibition at 100 nM (IgG)” value: 100% for the first, 100% for the second.

B9 and B10 are within 1.5-fold of each other in “HEK-Blue, IL-36α, IC50 (IgG)” value: 0.28 nM for the first, 0.34 nM for the second.

B11 and B12 are within 1.5-fold of each other in “HEK-Blue, IL-36α, IC50 (IgG)” value: 0.247 nM for the first, 0.34 nM for the second.

First: B13
Second: B14
The “HEK-Blue, IL-36α, IC50 (IgG)” value of the first is 1.6-fold lower: 0.303 nM for the first, 0.495 nM for the second.

Target: T2, human IL1RAP (hu-IL1RAP) on human cells
Test: cell-based or functional assay
Remark: another data set of the same source

Going from B1 to B5, the “HEK-Blue, IL-1β, % inhibition at 100 nM (Fab)” value rises from 96% to 100%.

Compared with B1, B5 is 4.7-fold lower in “HEK-Blue, IL-1β, IC50 (Fab)” value: 7.45 nM for the first, 1.59 nM for the second.

Going from B1 to B5, the “HEK-Blue, IL-33, % inhibition at 100 nM (Fab)” value rises from 77% to 96%.

Compared with B1, B5 is 4.9-fold lower in “HEK-Blue, IL-33, IC50 (Fab)” value: 26.4 nM for the first, 5.38 nM for the second.

Compared with B1, B5 is higher in “HEK-Blue, IL-36α, % inhibition at 100 nM (Fab)” value: 96% for the first, 100% for the second.

Going from B1 to B5, the “HEK-Blue, IL-36α, IC50 (Fab)” value falls from 5.09 nM to 1.27 nM (4-fold).

Target: T1, hu-M-IL1RAP construct, positions …
Test: SPR, Fab analyte, 37 C
Remark: another data set of the same source

B1 was tested, and the “apparent Kd (pooled screen)” value was 0.268 nM.

For B1, the “apparent koff (pooled screen)” value was 0.00163 s⁻¹.

With B1 the “apparent kon (pooled screen)” value was 6.08e+06 M⁻¹ s⁻¹.

Compared with B15, B16 is 2.1-fold higher in Kd: 0.0811 nM for the first, 0.17 nM for the second.

Compared with B17, B5 is 3-fold lower in Kd: 0.131 nM for the first, 0.0441 nM for the second.

Compared with B18, B19 is 3.1-fold lower in Kd: 0.305 nM for the first, 0.0998 nM for the second. The second binds more tightly here.

Binder B20 has a Kd of 0.46 nM.

First: B15
Second: B16
The koff of the first is 2.2-fold lower: 0.000401 s⁻¹ for the first, 0.000899 s⁻¹ for the second.

Going from B17 to B5, the koff falls from 0.000702 s⁻¹ to 0.000159 s⁻¹ (4.4-fold).

First: B18
Second: B19
The koff of the first is 3.4-fold higher: 0.00174 s⁻¹ for the first, 0.000511 s⁻¹ for the second.

With B20 the koff was 0.00441 s⁻¹.

B15 and B16 are within 1.5-fold of each other in kon: 4.94e+06 M⁻¹ s⁻¹ for the first, 5.27e+06 M⁻¹ s⁻¹ for the second.

B17 and B5 are within 1.5-fold of each other in kon: 5.34e+06 M⁻¹ s⁻¹ for the first, 3.6e+06 M⁻¹ s⁻¹ for the second.

B18 and B19 are within 1.5-fold of each other in kon: 5.7e+06 M⁻¹ s⁻¹ for the first, 5.13e+06 M⁻¹ s⁻¹ for the second.

B20 showed a kon of 9.58e+06 M⁻¹ s⁻¹.
